Laboratory results: PMC10420310, “The Complex Proteolipidic Behavior of the SARS-CoV-2 Envelope Protein Channel: Weak Selectivity and Heterogeneous Oligomerization” (International Journal of Molecular Sciences, 2023)
Where “and” joins values, the source holds several entries; their conditions need not be identical. Identical values can stand only once.

Tests used:
[1] = target: full-length SARS-2 E protein (E-FL) (SARS-CoV-2) (UniProt P0DTC4); test: AUC; sedimentation velocity, E-FL at DPR 125 in 5 mM C14SB micelles, 50 mM Tris-HCl pH 7.3, 100 mM NaCl, 29.4% D2O, 20 °C, 50,000 rpm
[2] = target: truncated SARS-2 E protein corresponding to residues 8–65 with N-terminal 6-His tag (6H-E-TR) (SARS-CoV-2) (UniProt P0DTC4); test: AUC; sedimentation velocity, His-E-TR at DPR 25 in 5 mM C14SB micelles, 50 mM Tris-HCl pH 7.3, 100 mM NaCl, 29.4% D2O, 20 °C, 50,000 rpm
[3] = target: truncated SARS-2 E protein corresponding to residues 8–65 with N-terminal 6-His tag (6H-E-TR) (SARS-CoV-2) (UniProt P0DTC4); test: AUC; sedimentation velocity, His-E-TR at DPR 70 in 5 mM C14SB micelles, 50 mM Tris-HCl pH 7.3, 100 mM NaCl, 29.4% D2O, 20 °C, 50,000 rpm

Substance	stoichiometry N [1]	stoichiometry N [2]	stoichiometry N [3]
full-length SARS-2 E protein (E-FL) (from UniProt P0DTC4 1-75) (natural protein)	2 and 4.6	–	–
truncated SARS-2 E protein corresponding to residues 8–65 with N-terminal 6-His tag (6H-E-TR) (from UniProt P0DTC4 8-65) (domain or fragment)	–	3	2.56
